Source: patent publication US20110311544A1

Assays:
[1] = target: CD71 (transferrin receptor) on human tumour cell lines (human) (UniProt P02786); test: flow cytometry, biotin-OKT9 on A375 cells after pre-incubation with control ascites NS1 at 37° C. (no competitor)
[2] = target: CD71 (transferrin receptor) on human tumour cell lines (human) (UniProt P02786); test: flow cytometry, biotin-OKT9 on A375 cells after pre-incubation with control ascites NS1 at 4° C. (no competitor)
[3] = target: CD71 (transferrin receptor) on human tumour cell lines (human) (UniProt P02786); test: quantitative flow cytometry on A375 cells, background control, medium FCS, no Tf-Fe
[4] = target: CD71 (transferrin receptor) on human tumour cell lines (human) (UniProt P02786); test: quantitative flow cytometry on A375 cells, background control, medium FCS, with Tf-Fe
[5] = target: CD71 (transferrin receptor) on human tumour cell lines (human) (UniProt P02786); test: quantitative flow cytometry on A375 cells, background control, medium human AB serum, no Tf-Fe
[6] = target: CD71 (transferrin receptor) on human tumour cell lines (human) (UniProt P02786); test: quantitative flow cytometry on A375 cells, background control, medium human AB serum, with Tf-Fe

Chain of UniProt P02786 (P02786 whole entry): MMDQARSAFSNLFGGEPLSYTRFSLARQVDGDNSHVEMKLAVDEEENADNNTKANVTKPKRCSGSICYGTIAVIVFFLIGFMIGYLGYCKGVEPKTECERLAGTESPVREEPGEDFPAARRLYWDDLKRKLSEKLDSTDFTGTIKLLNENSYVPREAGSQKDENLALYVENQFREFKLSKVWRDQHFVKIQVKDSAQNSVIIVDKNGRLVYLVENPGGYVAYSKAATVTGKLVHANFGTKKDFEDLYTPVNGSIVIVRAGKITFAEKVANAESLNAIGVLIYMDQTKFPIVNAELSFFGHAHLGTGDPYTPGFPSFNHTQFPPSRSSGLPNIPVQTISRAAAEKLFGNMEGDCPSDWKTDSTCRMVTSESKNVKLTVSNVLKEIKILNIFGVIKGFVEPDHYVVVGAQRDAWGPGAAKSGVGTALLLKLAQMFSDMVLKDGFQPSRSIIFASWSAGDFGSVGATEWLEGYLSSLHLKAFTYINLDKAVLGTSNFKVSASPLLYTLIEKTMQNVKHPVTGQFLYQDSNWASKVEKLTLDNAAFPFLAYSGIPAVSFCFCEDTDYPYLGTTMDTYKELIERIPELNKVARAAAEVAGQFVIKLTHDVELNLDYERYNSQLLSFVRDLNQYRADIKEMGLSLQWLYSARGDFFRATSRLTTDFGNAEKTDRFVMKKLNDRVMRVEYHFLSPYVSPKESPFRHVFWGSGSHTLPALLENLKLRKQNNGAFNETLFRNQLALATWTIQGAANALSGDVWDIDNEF

| Substance | Mean Fluorescence intensity [1] | Mean Fluorescence intensity [2] | Sites [3] | Sites [4] | Sites [5] | Sites [6] |
| --- | --- | --- | --- | --- | --- | --- |
| biotin-labeled anti-CD71 mAb OKT9 (antibody) | 8.84 | 6.53 |  |  |  |  |
| control ascites NS1 |  |  | 3250 sites | 3310 sites | 5790 sites | 5790 sites |
